Test results as given in PMC7324491, “Non-native proteins inhibit the ER oxidoreductin 1 (Ero1)–protein disulfide-isomerase relay when protein folding capacity is exceeded” (The Journal of Biological Chemistry, 2020).
Each block holds one molecule with its values, some of them ahead of it. Ends that are not written are not given here. * marks the point of attachment. Biotin = O=C1N[C@H]2[C@H](CS[C@H]2CCCCC(=O)*)N1

How the values were obtained:
Ero1α–PDI = target: T1, Ero1α–PDI (Homo sapiens, UniProt P07237); assay: oxygen consumption assay; format: biochemical; settings: pH 7.0, 50 μM inhibitor pre- or postactivation, 10 μM PDI, 10 mM GSH; control compound
T1 construct: gene P4HB; with ERO1-like protein alpha

[1] = target: T2, His-tagged mature protein disulfide-isomerase (PDI) (human, UniProt P07237 18-508); assay: BLI; biotin-labeled β-hairpin of Ero1α immobilised on SA biosensors; PDI at 0, 0.5, 1.0, 2.0, 4.0 μM; 30 °C; 20 mM sodium phosphate, pH 7.0, 300 mM NaCl, 1 mM DTT; 1:1 model; settings: both partners purified
T2 construct: protein disulfide-isomerase (PDI), human, mature protein, domains a, b, b', a'; calculated mass of the construct 56379 Da; Treated with 1 mM DTT before ITC and in the BLI assays with the β-hairpin

[2] = target: T2, His-tagged mature protein …; assay: ITC; 600 μM KFWWFS injected into 27 μM PDI; 25 °C; 20 mM sodium phosphate, pH 7.0, 0.15 M NaCl; both treated with 1 mM DTT for 5 min before the measurement; settings: both partners purified
[3] = target: T2, His-tagged mature protein …; assay: BLI; KFWWFS immobilised on AR2G biosensors; PDI at 0, 0.5, 1.0, 2.0 μM; 30 °C; 20 mM sodium phosphate, pH 7.0, 300 mM NaCl; 1:1 model, association and dissociation fitted separately; settings: both partners purified

T2 sequence (P07237 18-508): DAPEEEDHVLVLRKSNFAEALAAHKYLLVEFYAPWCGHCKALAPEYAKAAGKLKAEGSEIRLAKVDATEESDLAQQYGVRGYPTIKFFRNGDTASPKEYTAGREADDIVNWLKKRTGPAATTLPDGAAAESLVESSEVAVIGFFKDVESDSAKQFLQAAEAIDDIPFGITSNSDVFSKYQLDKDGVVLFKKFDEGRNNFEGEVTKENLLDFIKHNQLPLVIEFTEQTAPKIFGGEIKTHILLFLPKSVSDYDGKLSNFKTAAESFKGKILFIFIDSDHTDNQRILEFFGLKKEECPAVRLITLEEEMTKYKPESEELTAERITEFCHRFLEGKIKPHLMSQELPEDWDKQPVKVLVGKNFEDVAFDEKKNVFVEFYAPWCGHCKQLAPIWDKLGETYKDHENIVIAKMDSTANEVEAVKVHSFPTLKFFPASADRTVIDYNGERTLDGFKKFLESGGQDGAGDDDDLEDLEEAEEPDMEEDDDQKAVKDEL
T1 sequence (P07237 18-508): as above
T1 sequence (Q96HE7 24-468 partner): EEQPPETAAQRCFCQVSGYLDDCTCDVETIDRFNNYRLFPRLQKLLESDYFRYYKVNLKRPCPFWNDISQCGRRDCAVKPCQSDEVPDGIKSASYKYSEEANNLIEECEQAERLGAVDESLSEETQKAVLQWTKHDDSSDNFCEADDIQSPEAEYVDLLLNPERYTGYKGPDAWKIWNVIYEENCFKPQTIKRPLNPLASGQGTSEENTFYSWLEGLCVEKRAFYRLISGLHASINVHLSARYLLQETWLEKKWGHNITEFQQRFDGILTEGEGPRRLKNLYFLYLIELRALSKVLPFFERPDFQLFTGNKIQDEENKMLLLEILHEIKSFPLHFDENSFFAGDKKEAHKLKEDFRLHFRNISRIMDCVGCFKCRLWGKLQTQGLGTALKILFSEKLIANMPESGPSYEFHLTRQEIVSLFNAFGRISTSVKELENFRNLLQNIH

Molecule: C[C@]12CC[C@@H]3c4ccc(O)cc4CC[C@H]3[C@@H]1CC[C@H]2O [17α-estradiol]
- inhibition at 50 μM (Ero1α–PDI): it inhibited both activation and catalytic turnover, but only marginally

- Kd [1]: 4 µM
B1: β-hairpin of Ero1α (RYLLQETWLEKKWGH) with an N-terminal biotin label (peptide)
peptide: Biotin-RYLLQETWLEKKWGH
notes: protruding β-hairpin of human ER oxidoreductin 1 alpha (Ero1α), with a tryptophan at the tip (Trp272); also called β-hairpin loop of Ero1α; source: synthetic peptide, synthesized by GenScript

- Kd [2]: 6.8 µM
- stoichiometry N [2]: 0.97
- Kd [3]: 12.7 µM
B2: peptide KFWWFS (peptide)
peptide: KFWWFS
notes: model peptide without cysteine that mimics the exposed hydrophobic core of protein substrates; Immobilised on AR2G biosensors for BLI; also called model peptide; source: lyophilized peptide dissolved in 10 mM HCl
